Measured values taken from publication PMC10509710, “Development and validation of a purification system for functional full-length human SR-B1 and CD36” (The Journal of Biological Chemistry, 2023).

Target: oxidized low-density lipoprotein (oxLDL) (oxidized with CuSO4 (residues not told))
Test: MST; Cy5-labeled receptor (RED-NHS, lysines) at constant 20 nM, ligand in a 16-point 1:1 dilution series; exchange buffer (50 mM Hepes pH 7.5, 150 mM NaCl, 0.025% LMNG, 0.005% CHS); 25 °C, 40% MST power; apparent Kd, one-site specific binding; molar values from average molecular weights (267.5 kDa HDL, 3500 kDa oxLDL)
Details: both partners purified

B1: human full-length cluster of differentiation 36 (CD36), glycosylated (receptor, UniProt P16671 1-472, looked up)
chain: MGCDRNCGLIAGAVIGAVLAVFGGILMPVGDLLIQKTIKKQVVLEEGTIAFKNWVKTGTEVYRQFWIFDVQNPQEVMMNSSNIQVKQRGPYTYRVRFLAKENVTQDAEDNTVSFLQPNGAIFEPSLSVGTEADNFTVLNLAVAAASHIYQNQFVQMILNSLINKSKSSMFQVRTLRELLWGYRDPFLSLVPYPVTTTVGLFYPYNNTADGVYKVFNGKDNISKVAIIDTYKGKRNLSYWESHCDMINGTDAASFPPFVEKSQVLQFFSSDICRSIYAVFESDVNLKGIPVYRFVLPSKAFASPVENPDNYCFCTEKIISKNCTSYGVLDISKCKEGRPVYISLPHFLYASPDVSEPIDGLNPNEEEHRTYLDIEPITGFTLQFAKRLQVNLLVKPSEKIQVLKNLKRNYIVPILWLNETGTIGDEKANMFRSQVTGKINLLGLIEMILLSVGVVMFVAFMISYCACRSKTIK
modifications: glycosylated (Sf9); labeled with Cy5 via lysine residues in the MST
notes: CD36, human, full length, 472 amino acids as printed; the methods print a C-terminal hemaglutinin A secretion signal and an N-terminal PreScission cut site, His10 and FLAG; In detergent micelles when purified; also called glycosylated CD36; source: Sf9 cells, baculovirus (MOI 5): on cells and in lysate; also purified (LMNG/CHS solubilisation, TALON cobalt resin, desalting)
With B1 as the binder, how does the Kd read?
The Kd was 343 ± 286 nM.
